# B1: Autophagy-related protein 18 (Saccharomyces cerevisiae), P43601 (parent)
# chain: MSDSSPTINFINFNQTGTCISLGTSKGFKIFNCEPFGKFYSEDSGGYAIVEMLFSTSLLALVGIGDQPALSPRRLRIINTKKHSIICEVTFPTSILSVKMNKSRLVVLLQEQIYIYDINTMRLLHTIETNPNPRGLMAMSPSVANSYLVYPSPPKVINSEIKAHATTNNITLSVGGNTETSFKRDQQDAGHSDISDLDQYSSFTKRDDADPTSSNGGNSSIIKNGDVIVFNLETLQPTMVIEAHKGEIAAMAISFDGTLMATASDKGTIIRVFDIETGDKIYQFRRGTYATRIYSISFSEDSQYLAVTGSSKTVHIFKLGHSMSNNKLDSDDSNMEEAAADDSSLDTTSIDALSDEENPTRLAREPYVDASRKTMGRMIRYSSQKLSRRAARTLGQIFPIKVTSLLESSRHFASLKLPVETNSHVMTISSIGSPIDIDTSEYPELFETGNSASTESYHEPVMKMVPIRVVSSDGYLYNFVMDPERGGDCLILSQYSILMD
# Variants of: B1
# Conditions: with atg2_yeast ATG2, P53855
# Chain of atg2_yeast ATG2, P53855 (P53855 whole entry): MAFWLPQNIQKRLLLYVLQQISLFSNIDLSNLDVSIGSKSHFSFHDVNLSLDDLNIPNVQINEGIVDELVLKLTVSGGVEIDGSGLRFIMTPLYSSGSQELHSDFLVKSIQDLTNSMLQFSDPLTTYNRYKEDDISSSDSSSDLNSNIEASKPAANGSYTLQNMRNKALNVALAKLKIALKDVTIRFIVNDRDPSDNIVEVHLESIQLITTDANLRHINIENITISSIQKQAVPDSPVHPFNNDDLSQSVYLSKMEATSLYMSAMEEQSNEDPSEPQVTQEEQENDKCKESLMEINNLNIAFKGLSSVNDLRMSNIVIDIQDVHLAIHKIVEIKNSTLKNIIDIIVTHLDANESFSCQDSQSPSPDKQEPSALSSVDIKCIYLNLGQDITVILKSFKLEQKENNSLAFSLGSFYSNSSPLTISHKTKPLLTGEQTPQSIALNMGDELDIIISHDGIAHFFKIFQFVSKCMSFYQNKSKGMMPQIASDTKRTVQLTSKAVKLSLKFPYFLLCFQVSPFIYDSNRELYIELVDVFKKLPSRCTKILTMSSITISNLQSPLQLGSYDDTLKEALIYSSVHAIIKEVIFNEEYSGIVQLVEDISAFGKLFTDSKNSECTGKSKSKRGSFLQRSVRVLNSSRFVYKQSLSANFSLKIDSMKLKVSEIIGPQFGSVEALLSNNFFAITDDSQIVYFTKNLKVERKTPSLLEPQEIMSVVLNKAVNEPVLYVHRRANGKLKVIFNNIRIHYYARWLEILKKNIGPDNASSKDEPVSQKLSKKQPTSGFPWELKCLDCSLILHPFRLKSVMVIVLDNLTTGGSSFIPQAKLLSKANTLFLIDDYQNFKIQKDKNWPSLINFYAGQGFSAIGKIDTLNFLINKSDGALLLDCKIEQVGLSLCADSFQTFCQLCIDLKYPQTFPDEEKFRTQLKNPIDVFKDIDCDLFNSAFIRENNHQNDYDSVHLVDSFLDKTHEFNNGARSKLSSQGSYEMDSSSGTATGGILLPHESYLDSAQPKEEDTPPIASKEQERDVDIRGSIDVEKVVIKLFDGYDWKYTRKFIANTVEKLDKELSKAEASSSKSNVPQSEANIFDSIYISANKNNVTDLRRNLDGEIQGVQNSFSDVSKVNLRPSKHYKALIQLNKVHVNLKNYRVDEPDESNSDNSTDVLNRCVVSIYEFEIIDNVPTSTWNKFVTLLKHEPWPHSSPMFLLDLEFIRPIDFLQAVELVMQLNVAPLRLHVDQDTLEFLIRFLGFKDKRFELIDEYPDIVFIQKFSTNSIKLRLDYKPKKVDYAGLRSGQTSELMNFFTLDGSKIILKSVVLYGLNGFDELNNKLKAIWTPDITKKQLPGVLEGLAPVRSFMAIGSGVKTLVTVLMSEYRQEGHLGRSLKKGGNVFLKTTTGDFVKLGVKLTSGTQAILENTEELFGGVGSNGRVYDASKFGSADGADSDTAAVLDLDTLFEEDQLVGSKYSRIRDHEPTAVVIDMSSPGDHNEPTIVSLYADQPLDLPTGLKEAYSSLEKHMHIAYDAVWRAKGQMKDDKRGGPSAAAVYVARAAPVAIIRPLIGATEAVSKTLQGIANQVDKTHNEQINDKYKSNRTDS
row,Variant,effect of a mutation on the interaction
1,MSDSSPTINFINFNQTGTCISLGTSKGFKIFNCEPFGKFYSEDSGGYAIVEMLFSTSLLALVGIGDQPALSPRRLRIINTKKHSIICEVTFPTSILSVKMNKSRLVVLLQEQIYIYDINTMRLLHTIETNPNPRGLMAMSPSVANSYLVYPSPPKVINSEIKAHATTNNITLSVGGNTETSFKRDQQDAGHSDISDLDQYSSFTKRDDADPTSSNGGNSSIIKNGDVIVFNLETLQPTMVIEAHKGEIAAMAISFDGTLMATASDKGTIIRVFDIETGDKIYQFAAGTYATRIYSISFSEDSQYLAVTGSSKTVHIFKLGHSMSNNKLDSDDSNMEEAAADDSSLDTTSIDALSDEENPTRLAREPYVDASRKTMGRMIRYSSQKLSRRAARTLGQIFPIKVTSLLESSRHFASLKLPVETNSHVMTISSIGSPIDIDTSEYPELFETGNSASTESYHEPVMKMVPIRVVSSDGYLYNFVMDPERGGDCLILSQYSILMD [R285A;R286A],disrupting interaction strength

# Variants of: B1
# Conditions: with atg2_yeast ATG2, P53855
# Remark: another data set of the same source
row,Variant,effect of a mutation on the interaction
1,MSDSSPTINFINFNQTGTCISLGTSKGFKIFNCEPFGKFYSEDSGGYAIVEMLFSTSLLALVGIGDQPALSPRRLRIINTKKHSIICEVAAAAAILSVKMNKSRLVVLLQEQIYIYDINTMRLLHTIETNPNPRGLMAMSPSVANSYLVYPSPPKVINSEIKAHATTNNITLSVGGNTETSFKRDQQDAGHSDISDLDQYSSFTKRDDADPTSSNGGNSSIIKNGDVIVFNLETLQPTMVIEAHKGEIAAMAISFDGTLMATASDKGTIIRVFDIETGDKIYQFRRGTYATRIYSISFSEDSQYLAVTGSSKTVHIFKLGHSMSNNKLDSDDSNMEEAAADDSSLDTTSIDALSDEENPTRLAREPYVDASRKTMGRMIRYSSQKLSRRAARTLGQIFPIKVTSLLESSRHFASLKLPVETNSHVMTISSIGSPIDIDTSEYPELFETGNSASTESYHEPVMKMVPIRVVSSDGYLYNFVMDPERGGDCLILSQYSILMD [T90A;F91A;P92A;T93A;S94A],decreasing interaction strength

# Variants of: B1
# Conditions: with atg2_yeast ATG2, P53855
# Remark: another data set of the same source
row,Variant,effect of a mutation on the interaction
1,MSDSSPTINFINFNQTGTCISLGTSKGFKIFNCEPFGKFYSAAAGGAAIVEMLFSTSLLALVGIGDQPALSPRRLRIINTKKHSIICEVAAAAAILSVKMNKSRLVVLLQEQIYIYDINTMRLLHTIETNPNPRGLMAMSPSVANSYLVYPSPPKVINSEIKAHATTNNITLSVGGNTETSFKRDQQDAGHSDISDLDQYSSFTKRDDADPTSSNGGNSSIIKNGDVIVFNLETLQPTMVIEAHKGEIAAMAISFDGTLMATASDKGTIIRVFDIETGDKIYQFRRGTYATRIYSISFSEDSQYLAVTGSSKTVHIFKLGHSMSNNKLDSDDSNMEEAAADDSSLDTTSIDALSDEENPTRLAREPYVDASRKTMGRMIRYSSQKLSRRAARTLGQIFPIKVTSLLESSRHFASLKLPVETNSHVMTISSIGSPIDIDTSEYPELFETGNSASTESYHEPVMKMVPIRVVSSDGYLYNFVMDPERGGDCLILSQYSILMD [E42A;D43A;S44A;Y47A;T90A;F91A;P92A;T93A;S94A],disrupting interaction strength

# Reference: IntAct's records for PubMed 23230146
